A word on the stoichiometry N: it is a count of units in the complex or per binding partner.

For data set [1], the target named is VarF ATPase subunit of the VarDEF ABC transporter (Vibrio cholerae (strain CVD101 chromosomal DNA)). As to the kind of experiment: SEC; Superdex200 PrepGrade HiLoad 16/60, 20 mM Tris-HCl pH 8.25, 50 mM NaCl, 10% glycerol, 1 ml/minute; Mr from a calibration curve of standards. For orientation: SEC sorts molecules by how far they enter the pores of the column.
Data set [2] has as its target VarG metallo-β-lactamase (Vibrio cholerae (strain CVD101 chromosomal DNA)). As to the kind of experiment: intact protein ESI Q-TOF mass spectrometry; putative dimer peak from SEC infused directly, positive ion mode, MaxEnt1 deconvolution; 10 μg/mL in the methods, 50 μg/mL in the legend.
The target is the same in data set [3]. Nature of the data set: AUC.
The target is the same in data set [4]. As to the kind of experiment: AUC; sedimentation velocity, 42,000 rpm, 20°C, 280 nm, SEDFIT c(s, fr) and c(s, M).
Data set [5] shares this target. As to the kind of experiment: SEC; Superdex200 PrepGrade HiLoad 16/60, 20 mM Tris-HCl pH 8.25, 50 mM NaCl, 10% glycerol, 1 ml/minute; Mr from a calibration curve of standards.
In data set [6] the test system is VarR (Vibrio cholerae O1 biovar El Tor N16961). As to the kind of experiment: competition. Conditions: 50 mM Tris-HCl pH 7.5, 5 mM EDTA, 1 mM DTT, 100 ug/ml BSA, 5% glycerol, on ice 10 min; 4% polyacrylamide gel.

In data set [1], “VarF ATPase subunit of the VarDEF ABC transporter (enzyme)” had a stoichiometry N of 2.

Consider VarG metallo-β-lactamase (enzyme), for which the stoichiometry N in data set [2], in data set [3], in data set [4] and in data set [5] was 2 throughout.

Regarding 30 bp varR-varG IR, in data set [6], the binding signal stood at 1 ng.

(Values after article PMC5595328.)
